Experimental data from patent US20200199241A1 (Chugai, published 2020).
Changes are numbered by the printed parent chain. Numbers in names are those of the source.

T1: human FcγRIIa(R) (human, UniProt P12318 36-217)
T1 construct: also called FcgRIIaR; FcγRIIa type R
T1 chain: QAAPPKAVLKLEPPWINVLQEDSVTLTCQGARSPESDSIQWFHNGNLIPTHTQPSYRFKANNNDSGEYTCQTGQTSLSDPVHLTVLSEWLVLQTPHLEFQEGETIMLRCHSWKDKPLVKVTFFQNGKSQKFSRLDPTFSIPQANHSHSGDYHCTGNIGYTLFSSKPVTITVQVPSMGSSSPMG

T2: human FcγRIIa(H) (human, UniProt P12318 36-217)
T2 construct: also called FcgRIIaH; FcγRIIa type H
T2 sequence: T1 chain with R133H

T3: human FcγRIIb (human, UniProt P31994 43-217, limits assumed)
T3 construct: also called FcgRIIb
T3 sequence: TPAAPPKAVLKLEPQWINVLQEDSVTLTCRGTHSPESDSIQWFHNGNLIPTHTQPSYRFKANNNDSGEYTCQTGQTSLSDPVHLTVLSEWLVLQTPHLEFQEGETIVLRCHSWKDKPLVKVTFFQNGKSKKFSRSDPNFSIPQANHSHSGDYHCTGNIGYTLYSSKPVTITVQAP

B1: GpH7-B3 variant P238A/GpL16-k0 (antibody, human IgG1)
heavy: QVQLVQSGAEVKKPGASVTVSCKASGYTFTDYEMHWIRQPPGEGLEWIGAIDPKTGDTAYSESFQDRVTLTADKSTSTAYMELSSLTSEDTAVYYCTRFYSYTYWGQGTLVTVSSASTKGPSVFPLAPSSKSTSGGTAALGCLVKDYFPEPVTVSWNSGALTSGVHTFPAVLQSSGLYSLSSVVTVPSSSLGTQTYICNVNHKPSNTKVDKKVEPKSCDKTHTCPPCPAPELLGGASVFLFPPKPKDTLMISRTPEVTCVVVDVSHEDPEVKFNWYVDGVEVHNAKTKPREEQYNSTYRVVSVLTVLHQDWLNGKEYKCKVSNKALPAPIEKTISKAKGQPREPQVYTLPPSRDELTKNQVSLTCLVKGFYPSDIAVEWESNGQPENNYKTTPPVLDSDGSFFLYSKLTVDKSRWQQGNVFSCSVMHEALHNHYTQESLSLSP
light: DIVMTQSPLSLPVTPGEPASISCQASESLVHSNRNTYLHWYLQKPGQSPQLLIYKVSNRFSGVPDRFSGSGSGTDFTLKISRVEAEDVGVYYCSQNTHVPPTFGQGTKVEIE
notes: copies: 2 + 2
B2: GpH7-B3 variant L235K/GpL16-k0 (antibody, human IgG1)
heavy: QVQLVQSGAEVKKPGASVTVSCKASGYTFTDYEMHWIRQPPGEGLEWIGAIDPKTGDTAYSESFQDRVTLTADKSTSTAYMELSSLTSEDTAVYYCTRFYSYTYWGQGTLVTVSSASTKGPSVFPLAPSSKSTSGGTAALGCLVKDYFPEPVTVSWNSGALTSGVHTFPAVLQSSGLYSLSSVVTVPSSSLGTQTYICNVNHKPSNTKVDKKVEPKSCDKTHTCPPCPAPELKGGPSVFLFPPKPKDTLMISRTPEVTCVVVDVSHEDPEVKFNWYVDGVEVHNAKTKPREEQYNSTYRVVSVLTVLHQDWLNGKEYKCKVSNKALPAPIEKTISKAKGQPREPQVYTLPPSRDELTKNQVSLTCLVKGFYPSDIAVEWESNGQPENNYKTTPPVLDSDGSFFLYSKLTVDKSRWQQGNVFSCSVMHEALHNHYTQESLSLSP
light: B1 light
notes: copies: 2 + 2
B3: GpH7-B3 variant L235N/GpL16-k0 (antibody, human IgG1)
heavy: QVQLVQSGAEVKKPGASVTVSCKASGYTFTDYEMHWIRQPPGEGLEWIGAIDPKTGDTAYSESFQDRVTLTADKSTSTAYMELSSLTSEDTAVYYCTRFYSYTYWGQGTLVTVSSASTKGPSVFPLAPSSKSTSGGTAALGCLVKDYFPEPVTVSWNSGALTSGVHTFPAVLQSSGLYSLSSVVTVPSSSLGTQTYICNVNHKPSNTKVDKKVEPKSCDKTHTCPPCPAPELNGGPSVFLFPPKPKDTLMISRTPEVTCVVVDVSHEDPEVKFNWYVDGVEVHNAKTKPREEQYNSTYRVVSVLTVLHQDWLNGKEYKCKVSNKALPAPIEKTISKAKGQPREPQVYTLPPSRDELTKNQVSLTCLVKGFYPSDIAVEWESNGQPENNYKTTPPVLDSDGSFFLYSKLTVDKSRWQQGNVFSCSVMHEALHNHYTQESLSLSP
light: B1 light
notes: copies: 2 + 2
B4: GpH7-B3 variant L235G/GpL16-k0 (antibody, human IgG1)
heavy: not shown
light: B1 light
notes: copies: 2 + 2
B5: GpH7-B3 variant L235T/GpL16-k0 (antibody, human IgG1)
heavy: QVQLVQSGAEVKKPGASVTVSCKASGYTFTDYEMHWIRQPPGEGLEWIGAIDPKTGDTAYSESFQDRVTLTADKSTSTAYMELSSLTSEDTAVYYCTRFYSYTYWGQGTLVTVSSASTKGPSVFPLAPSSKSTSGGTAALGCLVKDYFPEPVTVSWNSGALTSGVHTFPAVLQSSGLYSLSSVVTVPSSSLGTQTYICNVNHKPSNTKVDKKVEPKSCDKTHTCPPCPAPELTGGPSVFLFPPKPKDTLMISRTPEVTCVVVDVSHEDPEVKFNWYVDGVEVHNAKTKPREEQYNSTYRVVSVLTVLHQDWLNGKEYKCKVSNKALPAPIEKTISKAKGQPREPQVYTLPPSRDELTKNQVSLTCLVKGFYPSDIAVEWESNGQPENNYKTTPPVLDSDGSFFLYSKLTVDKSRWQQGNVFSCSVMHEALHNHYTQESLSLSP
light: B1 light
notes: copies: 2 + 2
B6: GpH7-B3 variant P238I/GpL16-k0 (antibody, human IgG1)
heavy: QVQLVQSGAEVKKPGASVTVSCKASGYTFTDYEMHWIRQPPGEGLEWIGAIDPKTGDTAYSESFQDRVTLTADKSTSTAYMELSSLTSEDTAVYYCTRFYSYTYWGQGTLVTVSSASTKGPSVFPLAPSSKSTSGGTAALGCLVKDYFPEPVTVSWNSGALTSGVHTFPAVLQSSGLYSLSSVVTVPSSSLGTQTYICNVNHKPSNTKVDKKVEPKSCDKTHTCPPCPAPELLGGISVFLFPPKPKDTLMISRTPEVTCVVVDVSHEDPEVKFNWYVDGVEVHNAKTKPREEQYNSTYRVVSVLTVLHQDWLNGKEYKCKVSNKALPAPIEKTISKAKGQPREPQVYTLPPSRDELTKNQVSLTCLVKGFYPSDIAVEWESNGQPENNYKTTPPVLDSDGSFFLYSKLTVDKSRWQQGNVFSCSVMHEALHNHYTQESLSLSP
light: B1 light
notes: copies: 2 + 2
B7: GpH7-B3 variant L235P/GpL16-k0 (antibody, human IgG1)
heavy: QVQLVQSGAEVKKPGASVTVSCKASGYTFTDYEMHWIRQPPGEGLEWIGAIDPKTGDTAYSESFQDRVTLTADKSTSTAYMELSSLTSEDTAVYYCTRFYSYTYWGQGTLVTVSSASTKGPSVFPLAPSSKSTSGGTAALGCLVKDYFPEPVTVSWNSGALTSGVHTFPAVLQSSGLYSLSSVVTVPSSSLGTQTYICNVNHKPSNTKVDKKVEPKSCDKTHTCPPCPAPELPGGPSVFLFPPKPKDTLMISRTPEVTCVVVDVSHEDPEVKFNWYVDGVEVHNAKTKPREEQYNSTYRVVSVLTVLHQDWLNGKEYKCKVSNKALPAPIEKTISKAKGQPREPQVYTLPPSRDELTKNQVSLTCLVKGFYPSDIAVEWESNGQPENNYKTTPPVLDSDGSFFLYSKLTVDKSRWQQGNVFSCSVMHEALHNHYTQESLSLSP
light: B1 light
notes: copies: 2 + 2
B8: GpH7-B3 variant L235E/GpL16-k0 (antibody, human IgG1)
heavy: not shown
light: B1 light
notes: copies: 2 + 2
B9: GpH7-B3 variant P238R/GpL16-k0 (antibody, human IgG1)
heavy: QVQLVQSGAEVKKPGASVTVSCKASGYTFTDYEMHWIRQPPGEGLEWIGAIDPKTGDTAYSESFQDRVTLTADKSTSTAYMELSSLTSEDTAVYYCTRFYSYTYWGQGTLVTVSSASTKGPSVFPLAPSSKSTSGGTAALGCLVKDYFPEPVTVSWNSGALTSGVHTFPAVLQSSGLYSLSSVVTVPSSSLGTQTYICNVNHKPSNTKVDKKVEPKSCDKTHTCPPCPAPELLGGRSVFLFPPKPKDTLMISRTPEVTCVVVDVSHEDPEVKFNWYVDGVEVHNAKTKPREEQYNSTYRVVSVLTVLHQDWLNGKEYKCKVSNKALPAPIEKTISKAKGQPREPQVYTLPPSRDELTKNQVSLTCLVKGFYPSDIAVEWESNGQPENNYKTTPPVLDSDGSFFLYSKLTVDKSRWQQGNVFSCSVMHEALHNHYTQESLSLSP
light: B1 light
notes: copies: 2 + 2
B10: GpH7-B3 variant P238G/GpL16-k0 (antibody, human IgG1)
heavy: not shown
light: B1 light
notes: copies: 2 + 2
B11: GpH7-B3 variant L234T/GpL16-k0 (antibody, human IgG1)
heavy: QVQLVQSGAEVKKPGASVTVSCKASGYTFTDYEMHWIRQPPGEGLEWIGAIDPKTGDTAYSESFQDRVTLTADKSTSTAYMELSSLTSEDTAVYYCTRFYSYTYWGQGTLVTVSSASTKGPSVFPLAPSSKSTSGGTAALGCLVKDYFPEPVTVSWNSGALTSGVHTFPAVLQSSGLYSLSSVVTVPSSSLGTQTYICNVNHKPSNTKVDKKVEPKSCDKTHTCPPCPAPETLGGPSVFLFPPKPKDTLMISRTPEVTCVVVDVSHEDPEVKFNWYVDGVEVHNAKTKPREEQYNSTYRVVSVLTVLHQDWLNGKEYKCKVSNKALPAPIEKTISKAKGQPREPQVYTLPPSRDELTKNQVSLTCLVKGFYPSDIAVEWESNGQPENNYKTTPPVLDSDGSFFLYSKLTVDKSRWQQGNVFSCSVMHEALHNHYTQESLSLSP
light: B1 light
notes: copies: 2 + 2
B12: GpH7-B3 variant L235V/GpL16-k0 (antibody, human IgG1)
heavy: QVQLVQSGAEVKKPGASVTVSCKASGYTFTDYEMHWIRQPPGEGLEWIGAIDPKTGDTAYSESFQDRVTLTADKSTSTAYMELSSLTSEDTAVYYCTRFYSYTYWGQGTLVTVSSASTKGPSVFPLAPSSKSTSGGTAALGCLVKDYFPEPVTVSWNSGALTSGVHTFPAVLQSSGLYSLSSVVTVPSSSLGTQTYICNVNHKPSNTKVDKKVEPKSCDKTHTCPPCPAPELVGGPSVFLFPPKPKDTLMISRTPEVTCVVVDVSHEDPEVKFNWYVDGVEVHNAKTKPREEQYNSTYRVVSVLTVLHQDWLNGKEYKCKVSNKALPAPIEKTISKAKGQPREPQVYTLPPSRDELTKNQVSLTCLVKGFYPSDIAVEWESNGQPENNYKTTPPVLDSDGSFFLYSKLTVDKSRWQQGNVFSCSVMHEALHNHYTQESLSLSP
light: B1 light
notes: copies: 2 + 2
B13: GpH7-B3 variant L235S/GpL16-k0 (antibody, human IgG1)
heavy: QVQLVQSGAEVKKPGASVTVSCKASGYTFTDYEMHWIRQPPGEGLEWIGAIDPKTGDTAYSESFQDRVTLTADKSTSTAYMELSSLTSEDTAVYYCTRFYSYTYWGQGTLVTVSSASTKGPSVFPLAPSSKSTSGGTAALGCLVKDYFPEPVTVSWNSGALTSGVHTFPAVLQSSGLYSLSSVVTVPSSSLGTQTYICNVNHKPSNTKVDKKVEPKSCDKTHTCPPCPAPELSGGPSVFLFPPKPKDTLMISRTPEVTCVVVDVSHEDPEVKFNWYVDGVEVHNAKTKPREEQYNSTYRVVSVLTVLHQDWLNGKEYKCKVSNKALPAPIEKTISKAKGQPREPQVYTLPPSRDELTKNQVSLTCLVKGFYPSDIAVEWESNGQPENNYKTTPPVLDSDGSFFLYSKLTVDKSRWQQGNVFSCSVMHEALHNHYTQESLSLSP
light: B1 light
notes: copies: 2 + 2
B14: GpH7-B3 variant L235D/GpL16-k0 (antibody, human IgG1)
heavy: not shown
light: B1 light
notes: copies: 2 + 2
B15: GpH7-B3 variant P238S/GpL16-k0 (antibody, human IgG1)
heavy: not shown
light: B1 light
notes: copies: 2 + 2

biological target: T4, human FcγRIa (human, UniProt P12314 16-292, limits assumed); assay: SPR (Biacore);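 note: antibody variants captured on sensor chip, Fcγ receptor flowed over at 25 °C, bound receptor normalized to amount of captured antibody, expressed relative to reference antibody set as 100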
T4 construct: also called FcgRIa; FcγRI (CD64)
T4 sequence (P12314 16-292 limits assumed): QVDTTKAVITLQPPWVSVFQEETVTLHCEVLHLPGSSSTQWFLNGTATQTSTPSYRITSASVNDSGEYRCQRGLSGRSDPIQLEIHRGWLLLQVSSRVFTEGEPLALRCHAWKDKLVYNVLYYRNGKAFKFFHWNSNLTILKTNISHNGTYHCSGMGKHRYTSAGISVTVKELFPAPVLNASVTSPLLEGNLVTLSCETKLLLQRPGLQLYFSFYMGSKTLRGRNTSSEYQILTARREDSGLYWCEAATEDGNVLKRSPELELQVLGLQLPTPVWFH

relative binding activity	Binder
95 % of GpH7-B3/GpL16-k0	B1
-1 % of GpH7-B3/GpL16-k0	B2
3 % of GpH7-B3/GpL16-k0	B3
16 % of GpH7-B3/GpL16-k0	B4
8 % of GpH7-B3/GpL16-k0	B5
99 % of GpH7-B3/GpL16-k0	B6
3 % of GpH7-B3/GpL16-k0	B7
15 % of GpH7-B3/GpL16-k0	B8
1 % of GpH7-B3/GpL16-k0	B9
65 % of GpH7-B3/GpL16-k0	B10
93 % of GpH7-B3/GpL16-k0	B11
69 % of GpH7-B3/GpL16-k0	B12
11 % of GpH7-B3/GpL16-k0	B13
1 % of GpH7-B3/GpL16-k0	B14
91 % of GpH7-B3/GpL16-k0	B15

Biological target: T1, human FcγRIIa(R)
Assay: SPR (Biacore);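 note: antibody variants captured on sensor chip, Fcγ receptor flowed over at 25 °C, bound receptor normalized to amount of captured antibody, expressed relative to reference antibody set as 100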

relative binding activity	Binder
38 % of GpH7-B3/GpL16-k0	B1
-5 % of GpH7-B3/GpL16-k0	B2
35 % of GpH7-B3/GpL16-k0	B3
6 % of GpH7-B3/GpL16-k0	B4
28 % of GpH7-B3/GpL16-k0	B5
43 % of GpH7-B3/GpL16-k0	B6
38 % of GpH7-B3/GpL16-k0	B7
72 % of GpH7-B3/GpL16-k0	B8
-1 % of GpH7-B3/GpL16-k0	B9
4 % of GpH7-B3/GpL16-k0	B10
33 % of GpH7-B3/GpL16-k0	B11
50 % of GpH7-B3/GpL16-k0	B12
29 % of GpH7-B3/GpL16-k0	B13
87 % of GpH7-B3/GpL16-k0	B14
32 % of GpH7-B3/GpL16-k0	B15

biological target: T2, human FcγRIIa(H); assay: SPR (Biacore);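 note: antibody variants captured on sensor chip, Fcγ receptor flowed over at 25 °C, bound receptor normalized to amount of captured antibody, expressed relative to reference antibody set as 100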

relative binding activity	Binder
15 % of GpH7-B3/GpL16-k0	B1
0 % of GpH7-B3/GpL16-k0	B2
37 % of GpH7-B3/GpL16-k0	B3
7 % of GpH7-B3/GpL16-k0	B4
47 % of GpH7-B3/GpL16-k0	B5
19 % of GpH7-B3/GpL16-k0	B6
33 % of GpH7-B3/GpL16-k0	B7
52 % of GpH7-B3/GpL16-k0	B8
-1 % of GpH7-B3/GpL16-k0	B9
1 % of GpH7-B3/GpL16-k0	B10
30 % of GpH7-B3/GpL16-k0	B11
68 % of GpH7-B3/GpL16-k0	B12
39 % of GpH7-B3/GpL16-k0	B13
60 % of GpH7-B3/GpL16-k0	B14
13 % of GpH7-B3/GpL16-k0	B15

biological target: T3, human FcγRIIb; assay: SPR (Biacore);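 note: antibody variants captured on sensor chip, Fcγ receptor flowed over at 25 °C, bound receptor normalized to amount of captured antibody, expressed relative to reference antibody set as 100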

relative binding activity	Binder
26 % of GpH7-B3/GpL16-k0	B1
-3 % of GpH7-B3/GpL16-k0	B2
27 % of GpH7-B3/GpL16-k0	B3
3 % of GpH7-B3/GpL16-k0	B4
26 % of GpH7-B3/GpL16-k0	B5
31 % of GpH7-B3/GpL16-k0	B6
32 % of GpH7-B3/GpL16-k0	B7
64 % of GpH7-B3/GpL16-k0	B8
-2 % of GpH7-B3/GpL16-k0	B9
27 % of GpH7-B3/GpL16-k0	B10
27 % of GpH7-B3/GpL16-k0	B11
47 % of GpH7-B3/GpL16-k0	B12
23 % of GpH7-B3/GpL16-k0	B13
88 % of GpH7-B3/GpL16-k0	B14
28 % of GpH7-B3/GpL16-k0	B15

biological target: T5, human FcγRIIIa(F) (human, UniProt P08637 17-208, limits assumed); assay: SPR (Biacore)
T5 construct: also called FcgRIIIaF; allotype F158
T5 sequence (P08637 other isoform, or with tags, fused parts or gaps limits assumed): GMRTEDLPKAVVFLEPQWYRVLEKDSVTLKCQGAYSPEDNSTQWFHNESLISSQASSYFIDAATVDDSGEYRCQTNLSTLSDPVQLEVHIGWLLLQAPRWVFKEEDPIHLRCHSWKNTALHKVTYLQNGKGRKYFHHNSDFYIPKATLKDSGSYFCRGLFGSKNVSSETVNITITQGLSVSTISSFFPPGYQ

relative binding activity	Binder
5 % of GpH7-B3/GpL16-k0	B1
6 % of GpH7-B3/GpL16-k0	B2
35 % of GpH7-B3/GpL16-k0	B3
13 % of GpH7-B3/GpL16-k0	B4
48 % of GpH7-B3/GpL16-k0	B5
3 % of GpH7-B3/GpL16-k0	B6
47 % of GpH7-B3/GpL16-k0	B7
56 % of GpH7-B3/GpL16-k0	B8
-1 % of GpH7-B3/GpL16-k0	B9
0 % of GpH7-B3/GpL16-k0	B10
30 % of GpH7-B3/GpL16-k0	B11
77 % of GpH7-B3/GpL16-k0	B12
36 % of GpH7-B3/GpL16-k0	B13
60 % of GpH7-B3/GpL16-k0	B14
3 % of GpH7-B3/GpL16-k0	B15
